Test results taken from WO2022025129A1 (dated 2022).

B1: 5A4 antibody (recombinant human anti-HBs monoclonal antibody) (antibody, V domains shown)
VH: QVQLQESGPGLVKPSDTLSLTCTVSGGSISGHYWSWIRRLPGGGLEWIGYIHYSGITNYNPSLKSRVTMSVDMSKNQFSLRLRSVTATDTAVYYCARGDATYGYWGQGAPVTVSS
VL: AAAMTQSPFTLPVTPGEPASISCRSSQSLLHRNGYNYVNWYLRKPGQSPQLLISLGSDRASGVPDRFRGSGAGTDFTLKISRVEAEDVGVYYCMQALRTPWTFGQGTKVEIKR
notes: also called 5A4 clone
B2: 3B6 antibody (recombinant human anti-HBs monoclonal antibody) (antibody, V domains shown)
VH: EVQLVESGGGVVQPGKSLRVSCAASGFSFSNYGMHWVRQAPGKGLEWVSVIWRDGSHQYYADSVKGRFTVSRDNARDTLFLQMDGLRAEDTAVYYCAREDPAIVLPVLDHWGRGTLVTVSS
VL: AAAMTQSPVSLSASVGDRVTITCRASQRINSYLNWYQQKPGKAPKLLIYGASNLPSGVPSRFSGSGSGTYFTLTISSLQPEDLATYYCQQGYSTPLLSFGPGTKVEIKR
notes: also called 3B6 clone
B3: M2-11 antibody (recombinant human anti-HBs monoclonal antibody) (antibody, V domains shown)
VH: QVQLVESGGGLVKPGESLRLSCAASGFMFSGHSMVWVRQAPGKGLEWVSFIGSTGEFISYADSVRGRFTISRDNAKNSLYLQMNSLRADDTAVYYCAREQGTRGRYYYYGLDVWGQGTTVTVSS
VL: AAAMTQTPPSLSLSPGESATLSCRASQSVSTYLAWYQQKPGQAPRLLIYDAFNRATGIPARFSGSGSGTDFTLTISGLEPEDFAVYYCQQRGHWPLTFGGGTKVEIKR
notes: also called M2-11 clone

How the values were obtained:
[1] = molecular target: HBs antigen of genotype C HBV (infectious virus) (Hepatitis B virus (HBV) genotype C); test: cell-based or functional assay
[2] = molecular target: T1, human insulin (Fujifilm Wako Pure Chemical) (human, UniProt P01308 25-54; P01308 90-110); test: ELISA, human insulin coated on the plate, anti-human IgG-HRP
T1 construct: also called human-derived component
T1 sequence (P01308 25-54 limits assumed, chain 1 of 2): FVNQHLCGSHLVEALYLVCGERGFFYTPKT
T1 sequence (P01308 90-110 limits assumed, chain 2 of 2): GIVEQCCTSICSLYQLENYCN

| Binder | neutralization activity against commercially available HBIG (reduction of HBe antigen, PXB cells) [1] | binding result [2] |
| --- | --- | --- |
| B1 | ≥ 10 fold against commercially available HBIG | no binding (tested: 特異抗原であるHBsへの結合が飽和する濃度の10倍以上の抗体濃度) |
| B2 | ≥ 10 fold against commercially available HBIG | no binding (tested: 特異抗原であるHBsへの結合が飽和する濃度の10倍以上の抗体濃度) |
| B3 | ≥ 10 fold against commercially available HBIG | no binding (tested: 特異抗原であるHBsへの結合が飽和する濃度の10倍以上の抗体濃度) |
